Laboratory results published in paper PMC5218393.

target: C7 scFv (soluble, purified); assay: competition ELISA; details: chain shown with the change; C7 scFv 0.6 μg/ml mixed with the mutant protein; competition format: a low value means the soluble protein binds the scFv; parent: est. 5; read off a plot
Sequence (chain, as listed by the source, chain 1 of 2): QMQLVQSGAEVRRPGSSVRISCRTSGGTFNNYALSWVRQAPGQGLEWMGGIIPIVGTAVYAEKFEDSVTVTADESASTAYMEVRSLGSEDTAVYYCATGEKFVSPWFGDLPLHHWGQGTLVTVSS
Sequence (chain, as listed by the source, chain 2 of 2): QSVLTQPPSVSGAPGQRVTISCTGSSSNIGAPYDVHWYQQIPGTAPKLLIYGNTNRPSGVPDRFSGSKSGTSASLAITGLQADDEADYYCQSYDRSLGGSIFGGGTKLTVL

Row | other: Relative binding (residual antibody binding to coated antigen with the mutant protein as competitor) [%] | Binder
1 | 3 | recombinant Lu extracellular domain fused with an Fc-Tag (Lu-Fc), P50895 P254H (protein) EVRLSVPPLVEVMRGKSVILDCTPTGTHDHYMLEWFLTDRSGARPRLASAEMQGSELQVTMHDTRGRSPPYQLDSQGRLVLAEAQVGDERDYVCVVRAGAAGTAEATARLNVFAKPEATEVSPNKGTLSVMEDSAQEIATCNSRNGNPAPKITWYRNGQRLEVPVEMNPEGYMTSRTVREASGLLSLTSTLYLRLRKDDRDASFHCAAHYSLPEGRHGRLDSHTFHLTLHYPTEHVQFWVGSPSTPAGWVREGDTVQLLCRGDGSPSPEYTLFRLQDEQEEVLNVNLEGNLTLEGVTRGQSGTYGCRVEDYDAADDVQLSKTLELRVAYLDPLELSEGKVLSLPLNSSAVVNCSVHGLPTPALRWTKDSTPLGDGPMLSLSSITFDSNGTYVCEASLPTVPVLSRTQNFTLLVQGSPELKTAEIEPKADGSWREGDEVTLICSARGHPDPKLSWSQLGGSPAEPIPGRQGWVSSSLTLKVTSALSRDGISCEASNPHGNKRHVFHFGTVSPQTSQA
2 | 3 | recombinant Lu extracellular domain fused with an Fc-Tag (Lu-Fc), P50895 A149D (protein) EVRLSVPPLVEVMRGKSVILDCTPTGTHDHYMLEWFLTDRSGARPRLASAEMQGSELQVTMHDTRGRSPPYQLDSQGRLVLAEAQVGDERDYVCVVRAGAAGTAEATARLNVFAKPEDTEVSPNKGTLSVMEDSAQEIATCNSRNGNPAPKITWYRNGQRLEVPVEMNPEGYMTSRTVREASGLLSLTSTLYLRLRKDDRDASFHCAAHYSLPEGRHGRLDSPTFHLTLHYPTEHVQFWVGSPSTPAGWVREGDTVQLLCRGDGSPSPEYTLFRLQDEQEEVLNVNLEGNLTLEGVTRGQSGTYGCRVEDYDAADDVQLSKTLELRVAYLDPLELSEGKVLSLPLNSSAVVNCSVHGLPTPALRWTKDSTPLGDGPMLSLSSITFDSNGTYVCEASLPTVPVLSRTQNFTLLVQGSPELKTAEIEPKADGSWREGDEVTLICSARGHPDPKLSWSQLGGSPAEPIPGRQGWVSSSLTLKVTSALSRDGISCEASNPHGNKRHVFHFGTVSPQTSQA
3 | 4 | recombinant Lu extracellular domain fused with an Fc-Tag (Lu-Fc), P50895 R175N (protein) EVRLSVPPLVEVMRGKSVILDCTPTGTHDHYMLEWFLTDRSGARPRLASAEMQGSELQVTMHDTRGRSPPYQLDSQGRLVLAEAQVGDERDYVCVVRAGAAGTAEATARLNVFAKPEATEVSPNKGTLSVMEDSAQEIATCNSNNGNPAPKITWYRNGQRLEVPVEMNPEGYMTSRTVREASGLLSLTSTLYLRLRKDDRDASFHCAAHYSLPEGRHGRLDSPTFHLTLHYPTEHVQFWVGSPSTPAGWVREGDTVQLLCRGDGSPSPEYTLFRLQDEQEEVLNVNLEGNLTLEGVTRGQSGTYGCRVEDYDAADDVQLSKTLELRVAYLDPLELSEGKVLSLPLNSSAVVNCSVHGLPTPALRWTKDSTPLGDGPMLSLSSITFDSNGTYVCEASLPTVPVLSRTQNFTLLVQGSPELKTAEIEPKADGSWREGDEVTLICSARGHPDPKLSWSQLGGSPAEPIPGRQGWVSSSLTLKVTSALSRDGISCEASNPHGNKRHVFHFGTVSPQTSQA

same assay, conditions: chain shown with the change; C7 scFv 0.6 μg/ml mixed with the mutant protein; competition format: a low value means the soluble protein binds the scFv; parent: est. 110; read off a plot

Row | other: Relative binding (residual antibody binding to coated antigen with the mutant protein as competitor) [%] | Binder
4 | 95 | mouse Lu-Fc (MsLu-Fc), Q9R069 D142A; N168R; H247P (protein) ELHVSVPPRVEVMRGEQVALDCTPREHPEHYVLEWFLVDGTGARHRLASVEPQGSEFLGTVHSLGRVPPYEVDSRGRLVIAKVQVGDGRDYVCVVKAGAAGTSEATSSVRVFATPEATEVSPNKGTLSVMDQFAQEIATCSSRNGNPVPRITWYRNGQRLEVPMEVNQKGYITIRTVREASGLYSLTSTLYLRLHKDDRDANFHCAAHYDLPSGQHGRLDSPTFRLTLHYPTEHVEFWVGSPSTTEGWVREGDAVQLLCQGDGSPSPEYSFFRQQGTQEEQLNVNLKGNLTLERVHRNQSGIYGCRVEDYDADEEVQLVKKLKLHVAYLDPLELSVPEELFVFLNSSSTVVNCSARGLPTPTVRWTKDSVTLADGPMLSLQSVTFDSAGTYTCEASTPTVPLLSRTQSFQLIVQGAPELKPNEIMPKSGNSWTEGDEVMLTCSARGFPEPKLTWSQRGDTPAEPPFEGRGWKSSSLMVKVTSALSREGVSCEASNIHGKKGHVFHFGSVAPQTAQA

same assay, conditions: chain shown with the change; mutant protein mixed with diluted C7 scFv; wells coated with Lu-Fc; competition format: a low value means the soluble protein binds the scFv; read off a plot

Row | Binder | other: Relative binding (residual antibody binding to coated Lu-Fc with the mutant protein as competitor) [%]
5 | recombinant Lu extracellular domain fused with an Fc-Tag (Lu-Fc), P50895 H257R (protein) EVRLSVPPLVEVMRGKSVILDCTPTGTHDHYMLEWFLTDRSGARPRLASAEMQGSELQVTMHDTRGRSPPYQLDSQGRLVLAEAQVGDERDYVCVVRAGAAGTAEATARLNVFAKPEATEVSPNKGTLSVMEDSAQEIATCNSRNGNPAPKITWYRNGQRLEVPVEMNPEGYMTSRTVREASGLLSLTSTLYLRLRKDDRDASFHCAAHYSLPEGRHGRLDSPTFRLTLHYPTEHVQFWVGSPSTPAGWVREGDTVQLLCRGDGSPSPEYTLFRLQDEQEEVLNVNLEGNLTLEGVTRGQSGTYGCRVEDYDAADDVQLSKTLELRVAYLDPLELSEGKVLSLPLNSSAVVNCSVHGLPTPALRWTKDSTPLGDGPMLSLSSITFDSNGTYVCEASLPTVPVLSRTQNFTLLVQGSPELKTAEIEPKADGSWREGDEVTLICSARGHPDPKLSWSQLGGSPAEPIPGRQGWVSSSLTLKVTSALSRDGISCEASNPHGNKRHVFHFGTVSPQTSQA | 3
6 | recombinant Lu extracellular domain fused with an Fc-Tag (Lu-Fc), P50895 E245S (protein) EVRLSVPPLVEVMRGKSVILDCTPTGTHDHYMLEWFLTDRSGARPRLASAEMQGSELQVTMHDTRGRSPPYQLDSQGRLVLAEAQVGDERDYVCVVRAGAAGTAEATARLNVFAKPEATEVSPNKGTLSVMEDSAQEIATCNSRNGNPAPKITWYRNGQRLEVPVEMNPEGYMTSRTVREASGLLSLTSTLYLRLRKDDRDASFHCAAHYSLPSGRHGRLDSPTFHLTLHYPTEHVQFWVGSPSTPAGWVREGDTVQLLCRGDGSPSPEYTLFRLQDEQEEVLNVNLEGNLTLEGVTRGQSGTYGCRVEDYDAADDVQLSKTLELRVAYLDPLELSEGKVLSLPLNSSAVVNCSVHGLPTPALRWTKDSTPLGDGPMLSLSSITFDSNGTYVCEASLPTVPVLSRTQNFTLLVQGSPELKTAEIEPKADGSWREGDEVTLICSARGHPDPKLSWSQLGGSPAEPIPGRQGWVSSSLTLKVTSALSRDGISCEASNPHGNKRHVFHFGTVSPQTSQA | 22
7 | mouse Lu-Fc (MsLu-Fc), Q9R069 Q240R (protein) ELHVSVPPRVEVMRGEQVALDCTPREHPEHYVLEWFLVDGTGARHRLASVEPQGSEFLGTVHSLGRVPPYEVDSRGRLVIAKVQVGDGRDYVCVVKAGAAGTSEATSSVRVFATPEDTEVSPNKGTLSVMDQFAQEIATCSSNNGNPVPRITWYRNGQRLEVPMEVNQKGYITIRTVREASGLYSLTSTLYLRLHKDDRDANFHCAAHYDLPSGRHGRLDSHTFRLTLHYPTEHVEFWVGSPSTTEGWVREGDAVQLLCQGDGSPSPEYSFFRQQGTQEEQLNVNLKGNLTLERVHRNQSGIYGCRVEDYDADEEVQLVKKLKLHVAYLDPLELSVPEELFVFLNSSSTVVNCSARGLPTPTVRWTKDSVTLADGPMLSLQSVTFDSAGTYTCEASTPTVPLLSRTQSFQLIVQGAPELKPNEIMPKSGNSWTEGDEVMLTCSARGFPEPKLTWSQRGDTPAEPPFEGRGWKSSSLMVKVTSALSREGVSCEASNIHGKKGHVFHFGSVAPQTAQA | 14

Now from value to binder:

Row | other: Relative binding (residual antibody binding to coated Lu-Fc with the mutant protein as competitor) [%] | Binder
8 | 87 | recombinant Lu extracellular domain fused with an Fc-Tag (Lu-Fc), P50895 R247Q (protein) EVRLSVPPLVEVMRGKSVILDCTPTGTHDHYMLEWFLTDRSGARPRLASAEMQGSELQVTMHDTRGRSPPYQLDSQGRLVLAEAQVGDERDYVCVVRAGAAGTAEATARLNVFAKPEATEVSPNKGTLSVMEDSAQEIATCNSRNGNPAPKITWYRNGQRLEVPVEMNPEGYMTSRTVREASGLLSLTSTLYLRLRKDDRDASFHCAAHYSLPEGQHGRLDSPTFHLTLHYPTEHVQFWVGSPSTPAGWVREGDTVQLLCRGDGSPSPEYTLFRLQDEQEEVLNVNLEGNLTLEGVTRGQSGTYGCRVEDYDAADDVQLSKTLELRVAYLDPLELSEGKVLSLPLNSSAVVNCSVHGLPTPALRWTKDSTPLGDGPMLSLSSITFDSNGTYVCEASLPTVPVLSRTQNFTLLVQGSPELKTAEIEPKADGSWREGDEVTLICSARGHPDPKLSWSQLGGSPAEPIPGRQGWVSSSLTLKVTSALSRDGISCEASNPHGNKRHVFHFGTVSPQTSQA
9 | 18 | recombinant Lu extracellular domain fused with an Fc-Tag (Lu-Fc), P50895 S242D (protein) EVRLSVPPLVEVMRGKSVILDCTPTGTHDHYMLEWFLTDRSGARPRLASAEMQGSELQVTMHDTRGRSPPYQLDSQGRLVLAEAQVGDERDYVCVVRAGAAGTAEATARLNVFAKPEATEVSPNKGTLSVMEDSAQEIATCNSRNGNPAPKITWYRNGQRLEVPVEMNPEGYMTSRTVREASGLLSLTSTLYLRLRKDDRDASFHCAAHYDLPEGRHGRLDSPTFHLTLHYPTEHVQFWVGSPSTPAGWVREGDTVQLLCRGDGSPSPEYTLFRLQDEQEEVLNVNLEGNLTLEGVTRGQSGTYGCRVEDYDAADDVQLSKTLELRVAYLDPLELSEGKVLSLPLNSSAVVNCSVHGLPTPALRWTKDSTPLGDGPMLSLSSITFDSNGTYVCEASLPTVPVLSRTQNFTLLVQGSPELKTAEIEPKADGSWREGDEVTLICSARGHPDPKLSWSQLGGSPAEPIPGRQGWVSSSLTLKVTSALSRDGISCEASNPHGNKRHVFHFGTVSPQTSQA
